Drawing on patent publication US20190038796A1, this text covers EGF released from the conjugated PCL fiber mat after 4 hours of incubation with MMP-9 (ELISA) and EGF released from the conjugated PCL fiber mat over the first 10 minutes after the enzyme was added (ELISA) (ng EGF/mg PCL) for one substance.

The target in this test is EGF-MMP (recombinant epidermal growth factor with N-terminal PLP reactive site AKT, polyhistidine tag and MMP cleavage site VPLSLYSG). The test can be described thus: cell-based or functional assay.
EGF-MMP (recombinant epidermal growth factor with N-terminal PLP reactive site AKT, polyhistidine tag and MMP cleavage site VPLSLYSG), sequence (chain, as listed by the source limits assumed): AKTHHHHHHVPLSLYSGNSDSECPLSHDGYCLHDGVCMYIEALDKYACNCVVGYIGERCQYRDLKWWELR

In the case of “Recombinant, human pro-MMP-9 expressed in CHO cells, activated with amino-phenyl mercuric acetate (APMA) (from UniProt P14780 20-707) (enzyme)”, the EGF released from the conjugated PCL fiber mat after 4 hours of incubation with MMP-9 (ELISA) came to 20 ng/mg and the EGF released from the conjugated PCL fiber mat over the first 10 minutes after the enzyme was added (ELISA) (ng EGF/mg PCL) amounted to 11.
